Assay results reported in publication PMC12768534 (Science immunology, 2025).

Biological target: mIL-21 (mouse, UniProt Q9ES17 18-146)
Experiment: BLI; mIL-21 and 21h10 incubated in PBS or murine serum for 1-240 minutes at 37°C, then binding to mIL-21R
Conditions: both partners purified

binding result: binds
B1: biotinylated mIL-21R (receptor)
chain: not shown
modifications: biotin (biotinylated)
notes: murine IL-21 receptor, biotinylated recombinant protein; Held on streptavidin biosensors by its biotin; limits and tags are the vendor's; also called murine IL-21 receptor; source: bought: Acro Biosystems Cat# ILR-M82E3
